A word on the stoichiometry N: it is a count of units in the complex or per binding partner.

Consider four molecules from paper PMC10501992, “How Pol α-primase is targeted to replisomes to prime eukaryotic DNA replication” (Molecular Cell, 2023).

Common to all, as to assay: cryo-EM structure; budding yeast replisome: 150 nM CMG on fork DNA (39 nt 3′ flap, 60 nt 5′ flap) with 1.5-fold molar excess of Tof1-Csm3, Mrc1 and Pol α-primase; 25 mM HEPES-NaOH pH 7.6, 150 mM NaOAc, 0.5 mM TCEP, 500 μM AMP-PNP, 10 mM Mg(OAc)2, on ice; 10-30% glycerol gradient with glutaraldehyde and BS3 cross-linkers
The target in data set [1] is T1, budding yeast CMG (Cdc45-Mcm2-7-GINS) replicative helicase (S. cerevisiae, UniProt Q08032 1-650; P29469 1-868; P24279 1-971; P30665 1-933; P29496 1-775; P53091 …).
T1 construct: Cdc45, S. cerevisiae; Mcm2, S. cerevisiae; Mcm3, S. cerevisiae; Mcm4, S. cerevisiae (named only within Mcm2-7); Mcm5, S. cerevisiae; Mcm6, S. cerevisiae (named only within Mcm2-7); Mcm7, S. cerevisiae (named only within Mcm2-7); Psf1, subunit of GINS, S. cerevisiae; Psf2, subunit of GINS, S. cerevisiae; Sld5, subunit of GINS, S. cerevisiae; source: S. cerevisiae strain yJY197, expressed and …
As to conditions: both partners purified.

Data set [2] addresses T2, Pol1 (budding yeast Pol α catalytic subunit) (S. cerevisiae, UniProt P13382 1-1468).
T2 construct: Pol1, S. cerevisiae; modelled: CTD 1271-1468 and CIP box F140-S149; stood in the assay as a subunit of m1; also called Pol1CTD; Pol1CIP; source: subunit of Pol α-primase from S. cerevisiae strain yAE95, purified as described previously
T2 sequence: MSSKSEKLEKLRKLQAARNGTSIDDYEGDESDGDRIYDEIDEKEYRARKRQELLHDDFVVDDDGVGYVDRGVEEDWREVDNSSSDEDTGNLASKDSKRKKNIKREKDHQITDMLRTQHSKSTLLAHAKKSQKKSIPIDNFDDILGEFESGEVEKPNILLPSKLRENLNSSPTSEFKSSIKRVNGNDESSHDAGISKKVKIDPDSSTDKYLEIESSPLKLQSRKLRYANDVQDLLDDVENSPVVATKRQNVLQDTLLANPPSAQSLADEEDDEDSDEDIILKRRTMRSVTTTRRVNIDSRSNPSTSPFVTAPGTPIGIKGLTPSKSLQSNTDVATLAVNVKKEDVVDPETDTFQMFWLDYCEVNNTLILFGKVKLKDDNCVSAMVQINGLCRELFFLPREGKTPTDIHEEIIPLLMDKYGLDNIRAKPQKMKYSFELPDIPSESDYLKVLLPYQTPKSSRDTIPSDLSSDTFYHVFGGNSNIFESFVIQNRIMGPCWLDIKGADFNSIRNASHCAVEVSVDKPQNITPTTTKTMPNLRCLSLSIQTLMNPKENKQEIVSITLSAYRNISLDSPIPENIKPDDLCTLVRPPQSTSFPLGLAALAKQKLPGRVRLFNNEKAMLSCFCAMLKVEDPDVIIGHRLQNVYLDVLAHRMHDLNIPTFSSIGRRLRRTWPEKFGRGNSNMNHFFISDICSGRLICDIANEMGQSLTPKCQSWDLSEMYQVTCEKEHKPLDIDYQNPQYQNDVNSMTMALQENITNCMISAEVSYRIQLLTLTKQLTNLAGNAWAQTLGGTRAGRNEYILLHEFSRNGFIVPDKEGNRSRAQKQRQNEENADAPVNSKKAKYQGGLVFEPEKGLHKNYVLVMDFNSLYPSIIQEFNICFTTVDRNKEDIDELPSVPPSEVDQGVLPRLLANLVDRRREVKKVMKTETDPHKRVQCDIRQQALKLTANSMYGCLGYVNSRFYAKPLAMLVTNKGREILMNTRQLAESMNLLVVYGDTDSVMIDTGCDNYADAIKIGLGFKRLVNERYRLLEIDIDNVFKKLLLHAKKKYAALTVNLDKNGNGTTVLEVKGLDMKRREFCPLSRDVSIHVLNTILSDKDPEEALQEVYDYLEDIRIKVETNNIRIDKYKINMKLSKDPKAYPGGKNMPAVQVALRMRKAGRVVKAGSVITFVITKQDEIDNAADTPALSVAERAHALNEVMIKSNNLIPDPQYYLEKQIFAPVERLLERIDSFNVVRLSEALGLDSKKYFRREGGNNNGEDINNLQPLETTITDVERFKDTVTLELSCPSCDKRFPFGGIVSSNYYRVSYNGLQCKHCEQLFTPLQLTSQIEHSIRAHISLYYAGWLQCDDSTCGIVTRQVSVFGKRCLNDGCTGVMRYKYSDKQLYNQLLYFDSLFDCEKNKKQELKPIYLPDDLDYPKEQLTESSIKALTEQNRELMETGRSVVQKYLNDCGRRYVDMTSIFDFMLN
As to conditions: both partners purified.

Data set [3] deals with the molecule itself.
Data set [4] concerns the target T3, Pri2 (budding yeast primase accessory subunit) (S. cerevisiae, UniProt P20457 1-528).
T3 construct: Pri2, S. cerevisiae; modelled residues 1-5 (N terminus), 44-177 and 181-299 (NTD); stood in the assay as a subunit of m1; also called Pri2NTD; Pri2_(Nterm); source: subunit of Pol α-primase from S. cerevisiae strain yAE95, purified as described previously
T3 sequence: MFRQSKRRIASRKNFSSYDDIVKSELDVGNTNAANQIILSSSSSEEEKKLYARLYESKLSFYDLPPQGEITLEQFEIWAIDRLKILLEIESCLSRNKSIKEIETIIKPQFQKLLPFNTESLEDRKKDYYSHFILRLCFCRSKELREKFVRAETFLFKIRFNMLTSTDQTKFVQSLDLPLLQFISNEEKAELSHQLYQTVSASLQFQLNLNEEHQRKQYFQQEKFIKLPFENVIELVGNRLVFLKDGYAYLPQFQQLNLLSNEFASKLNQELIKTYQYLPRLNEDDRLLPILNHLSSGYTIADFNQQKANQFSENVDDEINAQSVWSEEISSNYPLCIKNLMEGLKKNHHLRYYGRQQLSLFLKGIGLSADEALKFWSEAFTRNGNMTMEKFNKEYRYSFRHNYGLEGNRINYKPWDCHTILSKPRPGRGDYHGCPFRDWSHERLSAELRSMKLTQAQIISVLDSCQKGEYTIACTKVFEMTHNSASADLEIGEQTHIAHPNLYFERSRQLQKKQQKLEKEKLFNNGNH
As to conditions: both partners purified.

Another data set deals with T4, Mcm3 (budding yeast) (S. cerevisiae, UniProt P24279 1-971).
T4 construct: Mcm3, S. cerevisiae; stood in the assay as a subunit of m2; source: subunit of CMG from S. cerevisiae strain yJY197, purified as described previously
T4 sequence (P24279 whole entry): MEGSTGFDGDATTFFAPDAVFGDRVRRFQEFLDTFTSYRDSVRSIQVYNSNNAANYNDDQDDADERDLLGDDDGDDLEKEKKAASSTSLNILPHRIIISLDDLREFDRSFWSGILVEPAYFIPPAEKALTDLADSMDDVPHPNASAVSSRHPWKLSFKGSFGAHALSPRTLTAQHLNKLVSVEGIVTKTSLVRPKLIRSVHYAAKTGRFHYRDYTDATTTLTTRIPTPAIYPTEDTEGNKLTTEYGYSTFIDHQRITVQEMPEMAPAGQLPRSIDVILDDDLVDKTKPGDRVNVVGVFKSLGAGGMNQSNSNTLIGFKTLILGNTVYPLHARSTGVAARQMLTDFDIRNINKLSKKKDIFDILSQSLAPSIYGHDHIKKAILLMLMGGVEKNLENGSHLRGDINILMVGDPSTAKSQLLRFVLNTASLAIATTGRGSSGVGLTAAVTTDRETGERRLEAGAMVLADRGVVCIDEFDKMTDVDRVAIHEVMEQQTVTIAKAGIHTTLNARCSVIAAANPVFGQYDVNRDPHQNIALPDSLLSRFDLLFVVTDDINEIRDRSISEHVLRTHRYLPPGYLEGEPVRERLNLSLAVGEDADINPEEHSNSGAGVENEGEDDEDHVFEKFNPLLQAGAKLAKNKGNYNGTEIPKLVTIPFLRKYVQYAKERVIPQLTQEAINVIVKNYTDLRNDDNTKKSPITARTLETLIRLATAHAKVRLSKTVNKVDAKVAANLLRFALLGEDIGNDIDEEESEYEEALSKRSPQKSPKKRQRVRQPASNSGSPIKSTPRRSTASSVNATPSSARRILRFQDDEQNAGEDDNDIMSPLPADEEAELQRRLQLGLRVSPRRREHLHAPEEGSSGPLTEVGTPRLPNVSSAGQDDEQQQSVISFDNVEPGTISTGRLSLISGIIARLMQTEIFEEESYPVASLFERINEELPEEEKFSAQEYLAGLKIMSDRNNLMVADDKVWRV
To be noted: both partners purified.

B1: Ctf4 (budding yeast) (natural protein, UniProt Q01454 1-927, looked up)
chain: MVSVIDKLVFDFGGKTLVSLAPDNNTLCVANKNGLTKILKTNNPEEEPETLDSSKLVSSIKCYSNSHFLMTTMQGDALRYNIDSSQEELLARFALPLRDCCVIHSGKMAVFGGDDLELILLELDDETHKKHAIKIDEQVSQISYNSQMNILAVSMINGKVQIFSLTSTIPNKVHELNDYIVANSYDDTHRDKILSNMMDDIDKDNDNDLSETADPDENNVADPEFCAANRICTRVAWHPKGLHFALPCADDTVKIFSIKGYSLQKTLSTNLSSTKAHFIDLQFDPLRGTYIAAVDLNNKLTVWNWETSEIHYTREFKRKITNIAWKIQADSKTLDLVLGTWSGSIAIVQNLAESVVSNIPDQSVAESSTKHGLFVDSESDLENLEGNDDINKSDKLFSDITQEANAEDVFTQTHDGPSGLSEKRKYNFEDEEDFIDDDDGAGYISGKKPHNEHSYSRVHKTHSFPISLANTGKFRYMPFSPAGTPFGFTDRRYLTMNEVGYVSTVKNSEQYSITVSFFDVGRFREYHFEDLFGYDLCFLNEKGTLFGQSKTGQIQYRPHDSIHSNWTKIIPLQAGERITSVAATPVRVIVGTSLGYFRSFNQFGVPFAVEKTSPIVALTAQNYRVFSVHYSQFHGLSYSLSELGTSSKRYYKRECPLPMSLPNINSDMKKDANLDYYNFNPMGIKSLFFSSYGDPCIFGSDNTLLLLSKWRSPEESKWLPILDSNMEIWKMSGGKETTDIHVWPLALAYDTLNCILVKGKHIWPEFPLPLPSEMEIRMPVFVKSKLLEENKAILNKKNEIGADTEAEEGEEDKEIQIPVSMAAEEEYLRSKVLSELLTDTLENDGEMYGNENEVLAALNGAYDKALLRLFASACSDQNVEKALSLAHELKQDRALTAAVKISERAELPSLVKKINNIREARYEQQLK
notes: Ctf4, S. cerevisiae; the results say that Ctf4 was not added to the yeast reconstitution; the general method lists Ctf4/AND-1 among the proteins added; source: endogenous Ctf4 likely co-purifying with CMG from S. cerevisiae
Consider B1, for which the binding result in data set [1] and in data set [2] was “binds” throughout. Further, in data set [3], the “stoichiometry N” value was 3.

B2: Psf2 (budding yeast GINS subunit) (natural protein, S. cerevisiae)
chain: MSLPAHLQQTFSPEEIQFIVENEPIKIFPRITTRQKIRGDDRGTGNHTRWQLITTDDKALNNMVAMRSTEVVLWIALLLKQQSKCSIVAPQWLTTKELDRKIQYEKTHPDRFSELPWNWLVLARILFNKAKDDFHDPIHELRGKIQDLREIRQIKVLKGLKYLNESHLQLDNLSLLEINELRPFITEIMDKLREIHTASLTAGTENDEEEFNI
notes: Psf2, subunit of GINS, S. cerevisiae; stood in the assay as a subunit of m2; source: subunit of CMG from S. cerevisiae strain yJY197, purified as described previously
As to B2, in data set [4], the binding result is reported as “binds”.

B3: Pol12 (budding yeast Pol α accessory subunit) (natural protein, S. cerevisiae)
chain: MSGSIDVITHFGPDADKPEIITALENLTKLHALSVEDLYIKWEQFSNQRRQTHTDLTSKNIDEFKQFLQLQMEKRANQISSSSKVNTSTKKPVIKKSLNSSPLFGLSIPKTPTLKKRKLHGPFSLSDSKQTYNVGSEAETNEKGNSSLKLEFTPGMAEDAVGDSAPLSHAKSSDAKTPGSSTFQTPTTNTPTTSRQNVPAGEILDSLNPENIEISSGNPNVGLLSTEEPSYNQVKVEPFYDAKKYKFRTMRQNLQEASDVLDDQIESFTKIIQNHYKLSPNDFADPTIQSQSEIYAVGRIVPDSPTYDKFLNPESLSLETSRMGGVGRRVRLDLSQVNELSFFLGQIVAFKGKNANGDYFTVNSILPLPYPNSPVSTSQELQEFQANLEGSSLKVIVTCGPYFANDNFSLELLQEFIDSINNEVKPHVLIMFGPFIDITHPLIASGKLPNFPQFKTQPKTLDELFLKLFTPILKTISPHIQTVLIPSTKDAISNHAAYPQASLIRKALQLPKRNFKCMANPSSFQINEIYFGCSNVDTFKDLKEVIKGGTTSSRYRLDRVSEHILQQRRYYPIFPGSIRTRIKPKDVSTKKETNDMESKEEKVYEHISGADLDVSYLGLTEFVGGFSPDIMIIPSELQHFARVVQNVVVINPGRFIRATGNRGSYAQITVQCPDLEDGKLTLVEGEEPVYLHNVWKRARVDLIAS
notes: Pol12, S. cerevisiae; modelled residues 1-79, 203-582 and 604-705; stood in the assay as a subunit of m1; also called Pol12NTD; source: subunit of Pol α-primase from S. cerevisiae strain yAE95, purified as described previously
B3: the binding result (in data set [2]; in the data set with Mcm3 (budding yeast)) was “binds” each time.

B4: Pri1 (budding yeast primase catalytic subunit) (natural protein, S. cerevisiae)
chain: MTNSVKTNGPSSSDMEYYYKSLYPFKHIFNWLNHSPKPSRDMINREFAMAFRSGAYKRYNSFNSVQDFKAQIEKANPDRFEIGAIYNKPPRERDTLLKSELKALEKELVFDIDMDDYDAFRTCCSGAQVCSKCWKFISLAMKITNTALREDFGYKDFIWVFSGRRGAHCWVSDKRARALTDVQRRNVLDYVNVIRDRNTDKRLALKRPYHPHLARSLEQLKPFFVSIMLEEQNPWEDDQHAIQTLLPALYDKQLIDSLKKYWLDNPRRSSKEKWNDIDQIATSLFKGPKQDSHIIKLRECKEDLVLMTLYPKLDVEVTKQTIHLLKAPFCIHPATGNVCVPIDESFAPEKAPKLIDLQTEMEKNNDVSLTALQPFINQFQAYVSSLLKNELGSVKREREDDDEPASLDF
notes: Pri1, S. cerevisiae; modelled aside from its flexible N and C termini; stood in the assay as a subunit of m1; source: subunit of Pol α-primase from S. cerevisiae strain yAE95, purified as described previously
On to B4, for which, in data set [4], the binding result is on record as “binds”.
